Here are results for 1 protein from PMC9246348.

As usually defined, the Km is the substrate concentration at which the rate is half of its maximum. One may read the Vmax as the top rate of the reaction or transport when substrate is in excess. Usually kcat/Km stands for the turnover number divided by the Michaelis constant.

Substrate in data set [1]: Nc1ccn([C@@H]2O[C@H](CO)[C@@H](O)[C@H]2O)c(=O)n1
As to the kind of experiment: ADP-Glo kinase assay. The format is biochemical, Homo sapiens. The following applies: 100 µM ATP, 50 mM Tris pH 7.5, 5 mM MgCl2, 2 mM DTT, room temperature. (In ADP-Glo the light output rises with the ADP produced.)

Substrate in data set [2]: O=c1ccn([C@@H]2O[C@H](CO)[C@@H](O)[C@H]2O)c(=O)[nH]1
As to the kind of experiment: ADP-Glo kinase assay. Type of data set: biochemical, Homo sapiens. As to conditions: 100 µM ATP, 50 mM Tris pH 7.5, 5 mM MgCl2, 2 mM DTT, room temperature.

B1: UCK2 (Homo sapiens) (protein)
chain: MAGDSEQTLQNHQQPNGGEPFLIGVSGGTASGKSSVCAKIVQLLGQNEVDYRQKQVVILSQDSFYRVLTSEQKAKALKGQFNFDHPDAFDNELILKTLKEITEGKTVQIPVYDFVSHSRKEETVTVYPADVVLFEGILAFYSQEVRDLFQMKLFVDTDADTRLSRRVLRDISERGRDLEQILSQYITFVKPAFEEFCLPTKKYADVIIPRGADNLVAINLIVQHIQDILNGGPSKRQTNGCLNGYTPSRKRQASESSSRPH
Consider B1, for which, in data set [1], the Km came out at 25.07 µM, the Vmax is 1.09 µmol/min/mg and the kcat/Km was determined as 35000 M⁻¹ s⁻¹. Also, in data set [2], the Km is 207.3 µM, the Vmax is 3.98 µmol/min/mg and the catalytic efficiency (kcat/Km) turned out to be 15000 M⁻¹ s⁻¹.
